Measurements: patent US20100021899

Biological target: alpha-PrP (prion protein, alpha form) (UniProt P04156)
Experiment: SPR
Settings: PBS pH 7.0, room temperature

In the case of “GTTCGGCACTTGGGCCCTTTTCTGTGTCTTTCTGTGCCCTTAGATAGTATGTGCAATCA [CaAp-3]”, the Kd is reported as 116 nM.
